Paper doi:10.1101/2025.11.16.688685

Legend:
hRNMT WT [1] = molecular target: T1, hRNMT WT (Homo sapiens, UniProt O43148 1-476); experiment: pull-down
hRNMT 120-476 [2] = molecular target: T2, hRNMT 120-476 (Homo sapiens, UniProt O43148 120-476); experiment: pull-down
hRNMT 1-185 [3] = molecular target: T3, hRNMT 1-185 (Homo sapiens, UniProt O43148 1-185); experiment: pull-down
hRNMT 120-476 [4] = molecular target: T2, hRNMT 120-476; experiment: EMSA
hRNMT WT;RAM 1-90 = hRNMT WT;RAM 1-90 (Homo sapiens;Homo sapiens?, UniProt O43148;Q9BTL3 1-476;1-90, |); experiment: EMSA
Sequence of hRNMT WT;RAM 1-90 (O43148 whole entry, chain 1 of 2): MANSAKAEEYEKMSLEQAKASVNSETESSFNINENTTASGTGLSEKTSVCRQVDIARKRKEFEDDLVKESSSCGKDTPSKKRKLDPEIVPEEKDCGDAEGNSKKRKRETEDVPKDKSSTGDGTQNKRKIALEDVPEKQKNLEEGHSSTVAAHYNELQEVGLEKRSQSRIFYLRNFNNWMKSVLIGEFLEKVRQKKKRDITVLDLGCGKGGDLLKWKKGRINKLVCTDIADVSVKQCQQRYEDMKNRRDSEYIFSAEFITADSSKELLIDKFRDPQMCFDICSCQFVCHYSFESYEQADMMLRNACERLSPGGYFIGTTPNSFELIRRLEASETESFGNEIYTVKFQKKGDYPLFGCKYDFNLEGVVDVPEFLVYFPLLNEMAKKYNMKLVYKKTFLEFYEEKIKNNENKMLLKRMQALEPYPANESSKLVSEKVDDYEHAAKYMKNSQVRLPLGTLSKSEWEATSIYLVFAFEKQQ
Sequence of hRNMT WT;RAM 1-90 (Q9BTL3 1-90, chain 2 of 2): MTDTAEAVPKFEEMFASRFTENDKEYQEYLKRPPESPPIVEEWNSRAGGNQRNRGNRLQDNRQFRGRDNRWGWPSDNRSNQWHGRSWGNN

hRNMT WT [5] = molecular target: T1, hRNMT WT; experiment: EMSA
hRNMT 1-185 [6] = molecular target: T3, hRNMT 1-185; experiment: EMSA

Measured: binding result

T2 sequence (O43148 120-476): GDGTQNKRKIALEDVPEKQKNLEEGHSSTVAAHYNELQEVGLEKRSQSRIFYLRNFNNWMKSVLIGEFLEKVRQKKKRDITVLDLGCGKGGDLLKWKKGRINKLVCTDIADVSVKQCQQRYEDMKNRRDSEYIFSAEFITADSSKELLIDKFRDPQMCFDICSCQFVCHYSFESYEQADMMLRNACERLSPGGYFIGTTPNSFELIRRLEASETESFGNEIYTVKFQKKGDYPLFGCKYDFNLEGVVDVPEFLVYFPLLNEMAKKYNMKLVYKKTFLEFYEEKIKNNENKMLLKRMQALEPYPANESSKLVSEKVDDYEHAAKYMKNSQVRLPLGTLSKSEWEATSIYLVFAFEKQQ
T1 sequence (O43148 whole entry): as the sequence (O43148 whole entry, chain 1 of 2) above
T3 sequence (O43148 1-185): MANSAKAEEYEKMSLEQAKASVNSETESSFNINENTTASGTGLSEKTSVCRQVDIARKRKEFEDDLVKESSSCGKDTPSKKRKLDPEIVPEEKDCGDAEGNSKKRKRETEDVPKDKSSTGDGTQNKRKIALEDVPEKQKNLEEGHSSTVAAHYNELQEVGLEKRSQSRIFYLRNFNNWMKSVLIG

UGUGGGAGGGGCGGGUGUGGGUGC (structured_RNA) [NRAS rG4]
binds: hRNMT WT [1] | hRNMT 120-476 [2] | hRNMT 1-185 [3]

B1: pGEM rG4 RNA (structured_RNA)
RNA: GGGCGAAUUGGGCCCGACGUCGCAUGUGUGGGAGGGGGCGGGUGUGGGUGCGAA
binds: hRNMT 120-476 [4] | hRNMT WT;RAM 1-90 | hRNMT WT [5] | hRNMT 1-185 [6]

B2: pGEM RNA (ssRNA)
RNA: GGGCGAAUUGGGCCCGACGUCGCAUGCUCCCGGCCGCCAUGGCGGCCGCGGGAA
binds: hRNMT 120-476 [4] | hRNMT WT;RAM 1-90
